This note sets out measurements from PMC4423706, “Mechanism of Thiosulfate Oxidation in the SoxA Family of Cysteine-ligated Cytochromes” (The Journal of Biological Chemistry, 2015).

Numbering of substitutions follows the chain as printed. Names and notes keep the numbering of the source.

Series [1] has as its target T1, TsdA (thiosulfate dehydrogenase) (Allochromatium vinosum, UniProt D3RVD4).
T1 construct: native signal peptide (removed on export), C-terminal strep(II) tag kept; E. coli Lemo56(DE3) with pEC86; two c-type hemes; 28,228 Da by ESI-MS; 234 residues modeled
T1 sequence (D3RVD4 28-270): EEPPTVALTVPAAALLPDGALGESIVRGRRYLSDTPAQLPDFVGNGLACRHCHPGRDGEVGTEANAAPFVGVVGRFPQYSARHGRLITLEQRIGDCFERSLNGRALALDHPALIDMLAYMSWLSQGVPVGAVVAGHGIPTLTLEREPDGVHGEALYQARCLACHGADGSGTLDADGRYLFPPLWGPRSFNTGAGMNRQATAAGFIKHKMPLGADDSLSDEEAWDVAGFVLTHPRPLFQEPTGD
In words: ESI-MS of intact protein. As to conditions: covalent; S-thiosulfonation of Cys123, +112 Da; pH 4.25 and pH 8.0; no electron donor. The format is biochemical.

Substrate in the series “purified protein”: O=S(O)(O)=S
In words: purified protein. The conditions noted are these: 1 mM potassium ferricyanide as electron acceptor, 100 mM ammonium acetate pH 4.25, 24 °C. The format is biochemical, Allochromatium vinosum.

By Km is commonly meant the substrate concentration at which the rate is half of its maximum. Usually kcat stands for the number of substrate molecules converted per active site and unit of time at saturation.

As to `O=S(=O)(O)SSS(=O)(=O)O` [tetrathionate], the “ESI-MS of intact protein” value in series [1] is “Tetrathionate treatment under both conditions gave the 112-Da increase in mass”.

B1: TsdA (thiosulfate dehydrogenase) (Allochromatium vinosum DSM 180) (protein)
chain: T1 sequence (D3RVD4 28-270)
notes: native signal peptide (removed on export), C-terminal strep(II) tag kept; E. coli Lemo56(DE3) with pEC86; two c-type hemes; 28,228 Da by ESI-MS; 234 residues modeled
Take B1: in the series “purified protein”, the Km came to 2.2 ± 0.3 mM and the kcat was 4280 ± 150 s⁻¹.

B2: TsdA (thiosulfate dehydrogenase) (Allochromatium vinosum DSM 180; R224A) (protein)
chain: T1 sequence (D3RVD4 28-270) with R197A
notes: as for B1
For B2, in “purified protein”, the Km is recorded as 2.5 ± 0.8 mM and the kcat was 3670 ± 460 s⁻¹.

B3: TsdA (thiosulfate dehydrogenase) (Allochromatium vinosum DSM 180; S127A) (protein)
chain: T1 sequence (D3RVD4 28-270) with S100A
notes: as for B1
B3: in “purified protein”, the Km came out at 10.7 ± 6.2 mM and the kcat is 3060 ± 920 s⁻¹.

B4: TsdA (thiosulfate dehydrogenase) (Allochromatium vinosum DSM 180; R109A) (protein)
chain: T1 sequence (D3RVD4 28-270) with R82A
notes: as for B1
Consider B4, for which, in “purified protein”, the Km was 5.8 ± 0.8 mM and the kcat was 3210 ± 310 s⁻¹.

B5: TsdA (thiosulfate dehydrogenase) (Allochromatium vinosum DSM 180; R119A) (protein)
chain: T1 sequence (D3RVD4 28-270) with R92A
notes: as for B1
For the molecule B5, in “purified protein”, the Km was 47 ± 7 mM and the kcat amounted to 640 ± 40 s⁻¹.
